In patent publication CN116574187A (ZHEJIANG SHIMAI PHARMACEUTICAL CO LTD, dated 2023):

Tests used:
[1] = molecular target: 细胞表面表达的GUCY2C (HT55, SW948, LS174T-GUCY2C, HT1080-GUCY2C细胞) (human, UniProt P25092 24-1073); assay: cell-based or functional assay
人GUCY2C蛋白(His标签) [2] = molecular target: T1, 人GUCY2C蛋白(His标签) (human, UniProt P25092 24-430); assay: ELISA, coated human GUCY2C protein, anti-Fc HRP detection
T1 construct: Bought from ACRO; also called 重组人GUCY2C; human GUCY2C protein (His tag); not shown: His tag

[3] = molecular target: CD3 on TCR/CD3效应细胞 (Jurkat-NFAT-CD3) (human); assay: cell-based or functional assay
人CD3蛋白 = molecular target: T2, 人CD3蛋白 (human); assay: ELISA, coated human CD3 protein
T2 construct: Bought from ACRO; also called 重组人CD3; human CD3 protein (Fc标签)

人GUCY2C蛋白(His标签) [4] = molecular target: T1, 人GUCY2C蛋白(His标签); assay: ELISA, coated human GUCY2C protein

Sequence of 细胞表面表达的GUCY2C (HT55, SW948, LS174T-GUCY2C, HT1080-GUCY2C细胞) (P25092 24-1073): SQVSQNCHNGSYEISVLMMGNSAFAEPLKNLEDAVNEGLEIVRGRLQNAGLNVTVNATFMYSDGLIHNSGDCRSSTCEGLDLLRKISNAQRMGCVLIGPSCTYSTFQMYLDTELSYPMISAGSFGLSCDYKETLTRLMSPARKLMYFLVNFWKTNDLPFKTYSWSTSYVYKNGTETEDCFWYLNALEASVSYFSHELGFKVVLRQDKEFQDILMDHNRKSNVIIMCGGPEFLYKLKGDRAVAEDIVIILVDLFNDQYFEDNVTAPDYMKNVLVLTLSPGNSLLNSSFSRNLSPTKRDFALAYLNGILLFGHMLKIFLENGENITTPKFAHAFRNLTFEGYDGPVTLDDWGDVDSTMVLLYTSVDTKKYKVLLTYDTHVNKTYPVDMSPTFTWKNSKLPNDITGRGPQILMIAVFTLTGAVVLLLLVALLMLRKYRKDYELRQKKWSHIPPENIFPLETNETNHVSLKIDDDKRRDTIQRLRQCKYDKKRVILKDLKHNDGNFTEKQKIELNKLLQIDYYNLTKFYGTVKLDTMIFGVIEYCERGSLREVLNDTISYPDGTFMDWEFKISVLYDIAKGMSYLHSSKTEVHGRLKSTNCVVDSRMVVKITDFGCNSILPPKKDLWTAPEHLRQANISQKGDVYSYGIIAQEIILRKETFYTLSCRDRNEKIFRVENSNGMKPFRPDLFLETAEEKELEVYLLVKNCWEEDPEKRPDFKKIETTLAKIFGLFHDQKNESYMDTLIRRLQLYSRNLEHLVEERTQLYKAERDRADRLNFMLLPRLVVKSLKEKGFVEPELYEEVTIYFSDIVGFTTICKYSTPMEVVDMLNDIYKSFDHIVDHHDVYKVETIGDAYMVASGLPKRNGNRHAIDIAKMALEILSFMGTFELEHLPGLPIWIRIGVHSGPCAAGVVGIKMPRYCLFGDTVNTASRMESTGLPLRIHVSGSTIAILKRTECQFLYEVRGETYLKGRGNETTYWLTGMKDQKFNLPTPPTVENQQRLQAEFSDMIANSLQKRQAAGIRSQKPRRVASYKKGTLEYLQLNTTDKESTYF
Sequence of CD3 on TCR/CD3效应细胞 (Jurkat-NFAT-CD3) (human) (chain, as listed by the source): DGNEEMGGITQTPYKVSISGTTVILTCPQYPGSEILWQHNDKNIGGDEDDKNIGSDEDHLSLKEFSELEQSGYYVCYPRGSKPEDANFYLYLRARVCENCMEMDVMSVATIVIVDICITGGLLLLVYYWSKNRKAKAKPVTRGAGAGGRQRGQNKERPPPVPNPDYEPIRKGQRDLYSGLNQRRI
T1 sequence (P25092 24-430 limits assumed): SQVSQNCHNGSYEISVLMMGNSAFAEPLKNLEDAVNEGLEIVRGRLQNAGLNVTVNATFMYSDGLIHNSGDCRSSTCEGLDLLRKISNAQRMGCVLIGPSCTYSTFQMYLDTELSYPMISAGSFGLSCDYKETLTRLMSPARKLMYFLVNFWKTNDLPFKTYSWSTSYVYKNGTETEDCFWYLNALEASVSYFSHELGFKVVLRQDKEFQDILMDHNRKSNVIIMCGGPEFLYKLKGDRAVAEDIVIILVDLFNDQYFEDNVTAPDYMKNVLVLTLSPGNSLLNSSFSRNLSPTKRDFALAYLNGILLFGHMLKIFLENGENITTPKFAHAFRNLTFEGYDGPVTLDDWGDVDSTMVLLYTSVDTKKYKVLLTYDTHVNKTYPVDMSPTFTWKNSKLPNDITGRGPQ
T2 sequence (P07766 23-126): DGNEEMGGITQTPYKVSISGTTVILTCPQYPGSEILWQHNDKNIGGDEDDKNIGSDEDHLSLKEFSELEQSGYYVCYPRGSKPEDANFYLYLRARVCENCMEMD

ADCC reporter: activation of Jurkat-CD16a cells in the presence of HT1080-GUCY2C cells (luciferase), EC50 [1] [µg/mL] | EC50 (人GUCY2C蛋白(His标签) [2]) [µg/mL] | T cell activation: Jurkat-NFAT-CD3 luciferase reporter with HT55 target cells, EC50 [1] [µg/mL] | T cell activation: Jurkat-NFAT-CD3 luciferase reporter with LS174T-GUCY2C target cells, EC50 [1] [µg/mL] | T cell activation: Jurkat-NFAT-CD3 luciferase reporter with SW948 target cells, EC50 [1] [µg/mL] | T cell activation: Jurkat-NFAT-CD3 luciferase reporter with HT55 target cells, EC50 [3] [µg/mL] | T cell activation: Jurkat-NFAT-CD3 luciferase reporter with LS174T-GUCY2C target cells, EC50 [3] [µg/mL] | T cell activation: Jurkat-NFAT-CD3 luciferase reporter with SW948 target cells, EC50 [3] [µg/mL] | EC50 (人CD3蛋白) [µg/mL] | EC50 (人GUCY2C蛋白(His标签) [4]) [µg/mL] | Binder | killing of HT55 cells with human PBMC (CCK8), EC50 [1] [µg/mL] | killing of LS174T-GUCY2C cells with human PBMC (CCK8), EC50 [1] [µg/mL] | killing of SW948 cells with human PBMC (CCK8), EC50 [1] [µg/mL]
~0.0247 | 0.193 |  |  |  |  |  |  |  |  | GCC-56C9M mAb (antibody, human IgG1, kappa, Chimeric full IgG1: Fab of mouse clone 56C9 fused to human IgG1 Fc; expressed in CHO-S cells; also called 抗GUCY2C mAb; 抗GUCY2C单克隆抗体) heavy: not shown light: QIVLTQSPAIMSVSPGEKVTITCSASSSVSYIHWFQQRPGTSPKLWIYSTSNLASGVPARFSGSGSGTSYSLTISRMEAEDAATYYCQQRSSYPLTFGTGTKLELKRTVAAPSVFIFPPSDEQLKSGTASVVCLLNNFYPREAKVQWKVDNALQSGNSQESVTEQDSKDSTYSLSSTLTLSKADYEKHKVYACEVTHQGLSSPVTKSFNRGEC |  |  | 
 |  | ~0.374 | ~0.335 | ~0.519 | ~0.374 | ~0.335 | ~0.519 | 0.116 | 0.14 | GCC-56C9H4-M6MV1-1 (bispecific antibody, human IgG1, kappa, Heterodimer of a 'light chain' (humanised anti-GUCY2C scFv - linker - anti-CD3 hSP34 VL-CL - mFc7.2) and a 'heavy chain' (anti-CD3 VH-CH1 - mFc7.2); expressed in 293FS or CHO-S cells; also called GUCY2C×CD3 IBiTE) light: EVQLVESGGGLVKPGGSLRLSCAASGFTFSSYAMTWVRQTPEKRLEWVATMSSGGGYTYYLDSVKGRFTISRDNAKNTLYLQMSSLRADDTAVYYCARHNYGYNYAMDYWGQGTLVTVSSGGGGSGGGGSGGGGSEIVLTQSPAIQSVSPGEKVTITCSASSSVSYIHWYQQRPGKAPKLLIYSTSNLASGVPARFSGSGSGTDFSLTISRLQAEDAATYYCQQRSSYPLTFGQGTKLEIKGSGGGGSGGGGSEIVVTQSPATLSVSPGERATLSCRSSTGAVTTSNYANWVQQKPGQAPRGLIGGANKRAPGVPARFSGSLSGDEATLTISSLQSEDFAVYYCALWYSNLWVFGQGTKLEIKRTVAAPSVFIFPPSDEQLKSGTASVVCLLNNFYPREAKVQWKVDNALQSGNSQESVTEQDSKDSTYSLSSTLTLSKADYEKHKVYACEVTHQGLSSPVTKSFNRGECGGSGSCPPCPAPEAAGAPSVFLFPPKPKDTLMISRTPEVTCVVVDVSHEDPEVKFNWYVDGVEVHNAKTKPREEQYNSTYRVVSVLTVLHQDWLNGKEYKCKVSNKALGAPIEKTISKAKGQPREPQVYTLPPSRDELTKNQVSLLCLVKGFYPSDIAVEWESNGQPENNYKTTPPVLDSDGSFFLHSKLTVDKSRWQQGNVFSCSVMHEALHNHYTQKSLSLSPG heavy: EVQLVESGGGLVQPGGSLRLSCAASGFTFNTYAMNWVRQAPGKGLEWVARIRSKYNNYATYYADSVKGRFTISRDDSKNTLYLQMNSLRAEDTAVYYCARHGNFGSSYVSYFAYWGQGTTVTVSSASTKGPSVFPLAPSSKSTSGGTAALGCLVKDYFPEPVTVSWNSGALTSGVHTFPAVLQSSGLYSLSSVVTVPSSSLGTQTYICNVNHKPSNTKVDKKVEPKSCDKTHTCPPCPAPEAAGAPSVFLFPPKPKDTLMISRTPEVTCVVVDVSHEDPEVKFNWYVDGVEVHNAKTKPREEQYNSTYRVVSVLTVLHQDWLNGKEYKCKVSNKALGAPIEKTISKAKGQPREPQVYTLPPSRDELTKNQVSLLCLVKGFYPSDIAVEWESNGQPENNYKTTPPVLDSDGSFFLHSKLTVDKSRWQQGNVFSCSVMHEALHNHYTQKSLSLSPG | 0.0152 | 0.00274 | 0.012
